In US20100229252, “MEGANUCLEASE VARIANTS CLEAVING A DNA TARGET SEQUENCE FROM THE HUMAN HEMOGLOBIN BETA GENE AND USES THEREOF” (CELLECTIS, published 2010):

Key:
Assay in all cases: cell_activity; CHO extrachromosomal LacZ assay
[1] = target: T1, I-CreI heterodimer HBB5.3_E3 / HBB5.4_A5 (Chlamydomonas reinhardtii, UniProt P05725;P05725 SEQ:1-167,SEQ:1-167)
T1 chain 1: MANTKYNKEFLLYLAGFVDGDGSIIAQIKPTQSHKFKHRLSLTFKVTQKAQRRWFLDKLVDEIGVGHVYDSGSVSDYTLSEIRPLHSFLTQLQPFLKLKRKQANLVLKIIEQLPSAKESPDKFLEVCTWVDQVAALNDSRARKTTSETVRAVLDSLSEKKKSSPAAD
T1 chain 2: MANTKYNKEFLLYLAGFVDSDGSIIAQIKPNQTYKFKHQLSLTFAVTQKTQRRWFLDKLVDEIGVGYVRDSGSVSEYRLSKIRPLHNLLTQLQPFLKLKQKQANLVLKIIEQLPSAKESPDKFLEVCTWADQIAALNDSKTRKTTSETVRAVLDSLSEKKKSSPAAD
Experimental: (§1) Several I-CreI refined mutants able to efficiently cleave the HBB 5 target in yeast when forming heterodimers were identified in example 7. In order to validate and characterize the heterodimer displaying the maximal efficacy to cleave the HBB 5 sequence in CHO cells, the efficiency of combinations of mutants able to cut the HBB 5 target were tested using an extrachromosomal assay in mammalian cells.
(§2) CHO cells were transfected with Polyfect® transfection reagent according to the supplier's protocol (QIAGEN). 72 hours after transfection, culture medium was removed and 150 μl of lysis/revelation buffer for β-galactosidase liquid assay was added (typically 1 liter of buffer contained: 100 ml of lysis buffer (Tris-HCl 10 mM pH7.5, NaCl 150 mM, Triton X100 0.1%, BSA 0.1 mg/ml, protease inhibitors), 10 ml of Mg 100×buffer (MgCl₂ 100 mM, β-mercaptoethanol 35%), 110 ml ONPG 8 mg/ml and 780 ml of sodium phosphate 0.1M pH7.5). After incubation at 37° C., OD was measured at 420 nm. The entire process was performed on an automated Velocity11 BioCel platform. Per assay, 150 ng of target vector was cotransfected with 12.5 ng of each HBB5 mutant expression vector (12.5 ng of vector encoding the mutant cleaving the palindromic HBB5.3 target and 12.5 ng of vector encoding the mutant cleaving palindromic HBB5.4 target).

[2] = target: T2, I-CreI heterodimer HBB5.3_E3 / HBB5.4_B1 (Chlamydomonas reinhardtii, UniProt P05725;P05725 SEQ:1-167,SEQ:1-167)
T2 chain 1: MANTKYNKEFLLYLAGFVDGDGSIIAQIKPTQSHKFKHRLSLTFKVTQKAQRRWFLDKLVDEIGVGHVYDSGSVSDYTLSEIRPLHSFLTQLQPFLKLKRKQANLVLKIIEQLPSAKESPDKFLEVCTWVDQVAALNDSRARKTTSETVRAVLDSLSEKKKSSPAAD
T2 chain 2: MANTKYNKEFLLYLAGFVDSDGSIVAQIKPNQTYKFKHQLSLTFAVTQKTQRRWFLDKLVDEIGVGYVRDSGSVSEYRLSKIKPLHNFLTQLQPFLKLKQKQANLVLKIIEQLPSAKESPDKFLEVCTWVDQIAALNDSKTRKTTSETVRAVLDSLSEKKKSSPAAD
Experimental: as §1, §2

[3] = target: T3, I-CreI heterodimer HBB5.3_B2 / HBB5.4_B1 (Chlamydomonas reinhardtii, UniProt P05725;P05725 SEQ:1-167,SEQ:1-167)
T3 chain 1: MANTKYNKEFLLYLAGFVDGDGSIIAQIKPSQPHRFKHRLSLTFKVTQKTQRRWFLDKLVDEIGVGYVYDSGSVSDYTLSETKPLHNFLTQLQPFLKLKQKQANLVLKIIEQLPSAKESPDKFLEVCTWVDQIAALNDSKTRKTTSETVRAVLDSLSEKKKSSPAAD
T3 chain 2: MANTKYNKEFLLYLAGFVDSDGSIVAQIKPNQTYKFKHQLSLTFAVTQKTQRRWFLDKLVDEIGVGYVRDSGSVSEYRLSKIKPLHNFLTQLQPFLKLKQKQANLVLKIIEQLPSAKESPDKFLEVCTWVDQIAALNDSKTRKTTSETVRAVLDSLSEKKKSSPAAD
Experimental: as §1, §2

[4] = target: T4, I-CreI heterodimer HBB5.3_A3 / HBB5.4_B1 (Chlamydomonas reinhardtii, UniProt P05725;P05725 SEQ:1-167,SEQ:1-167)
T4 chain 1: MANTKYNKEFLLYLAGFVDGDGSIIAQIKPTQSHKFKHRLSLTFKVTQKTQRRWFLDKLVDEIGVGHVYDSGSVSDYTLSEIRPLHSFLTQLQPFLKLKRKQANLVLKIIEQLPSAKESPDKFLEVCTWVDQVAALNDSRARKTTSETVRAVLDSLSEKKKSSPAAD
T4 chain 2: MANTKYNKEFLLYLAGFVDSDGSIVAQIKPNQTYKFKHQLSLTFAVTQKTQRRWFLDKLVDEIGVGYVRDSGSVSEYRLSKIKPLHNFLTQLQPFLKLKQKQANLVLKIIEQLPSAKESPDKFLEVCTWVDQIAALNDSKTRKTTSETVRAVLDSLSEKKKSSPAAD
Experimental: as §1, §2

[5] = target: T5, I-CreI heterodimer HBB5.3_B2 / HBB5.4_A6 (Chlamydomonas reinhardtii, UniProt P05725;P05725 SEQ:1-167,SEQ:1-167)
T5 chain 1: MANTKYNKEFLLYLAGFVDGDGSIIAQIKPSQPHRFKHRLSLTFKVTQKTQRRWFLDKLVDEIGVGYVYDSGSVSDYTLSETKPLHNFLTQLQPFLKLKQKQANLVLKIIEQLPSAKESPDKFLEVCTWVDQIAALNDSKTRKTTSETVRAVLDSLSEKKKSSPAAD
T5 chain 2: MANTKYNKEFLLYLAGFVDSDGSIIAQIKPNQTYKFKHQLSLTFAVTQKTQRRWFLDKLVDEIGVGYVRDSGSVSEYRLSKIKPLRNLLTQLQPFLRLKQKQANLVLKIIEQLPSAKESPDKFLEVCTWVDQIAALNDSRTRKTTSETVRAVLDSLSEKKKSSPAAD
Experimental: as §1, §2

[6] = target: T6, I-CreI heterodimer HBB5.3_A2 / HBB5.4_B1 (Chlamydomonas reinhardtii, UniProt P05725;P05725 SEQ:1-167,SEQ:1-167)
T6 chain 1: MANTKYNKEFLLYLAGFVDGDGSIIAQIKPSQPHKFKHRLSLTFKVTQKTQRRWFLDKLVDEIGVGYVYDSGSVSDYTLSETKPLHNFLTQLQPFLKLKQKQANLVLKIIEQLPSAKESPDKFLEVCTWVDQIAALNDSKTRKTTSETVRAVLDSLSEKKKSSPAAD
T6 chain 2: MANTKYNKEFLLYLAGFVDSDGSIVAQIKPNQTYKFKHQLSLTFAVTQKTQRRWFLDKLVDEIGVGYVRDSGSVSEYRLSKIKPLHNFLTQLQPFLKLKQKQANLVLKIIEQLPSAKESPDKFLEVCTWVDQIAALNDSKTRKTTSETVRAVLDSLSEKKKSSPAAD
Experimental: as §1, §2

[7] = target: T7, I-CreI heterodimer HBB5.3_E3 / HBB5.4_A6 (Chlamydomonas reinhardtii, UniProt P05725;P05725 SEQ:1-167,SEQ:1-167)
T7 chain 1: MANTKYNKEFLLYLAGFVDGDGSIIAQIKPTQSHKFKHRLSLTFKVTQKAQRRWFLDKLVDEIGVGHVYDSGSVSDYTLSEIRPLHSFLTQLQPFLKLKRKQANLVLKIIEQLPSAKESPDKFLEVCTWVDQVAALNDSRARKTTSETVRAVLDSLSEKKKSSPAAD
T7 chain 2: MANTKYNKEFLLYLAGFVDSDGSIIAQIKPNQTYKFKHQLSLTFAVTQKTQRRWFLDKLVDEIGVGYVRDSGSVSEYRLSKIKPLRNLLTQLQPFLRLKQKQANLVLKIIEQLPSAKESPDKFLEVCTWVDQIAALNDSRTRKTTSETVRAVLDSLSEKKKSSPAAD
Experimental: as §1, §2

[8] = target: T8, I-CreI heterodimer HBB5.3_A3 / HBB5.4_A5 (Chlamydomonas reinhardtii, UniProt P05725;P05725 SEQ:1-167,SEQ:1-167)
T8 chain 1: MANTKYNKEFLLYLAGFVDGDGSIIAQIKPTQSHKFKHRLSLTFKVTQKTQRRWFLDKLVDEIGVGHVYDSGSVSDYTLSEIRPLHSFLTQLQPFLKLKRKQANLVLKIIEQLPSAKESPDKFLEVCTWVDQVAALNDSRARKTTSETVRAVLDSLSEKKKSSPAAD
T8 chain 2: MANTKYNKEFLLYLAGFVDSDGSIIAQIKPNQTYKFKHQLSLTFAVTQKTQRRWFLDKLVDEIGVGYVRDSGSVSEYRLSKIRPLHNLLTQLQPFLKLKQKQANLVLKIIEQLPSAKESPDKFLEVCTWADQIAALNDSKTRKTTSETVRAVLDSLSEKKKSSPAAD
Experimental: as §1, §2

[9] = target: T9, I-CreI heterodimer HBB5.3_B2 / HBB5.4_A5 (Chlamydomonas reinhardtii, UniProt P05725;P05725 SEQ:1-167,SEQ:1-167)
T9 chain 1: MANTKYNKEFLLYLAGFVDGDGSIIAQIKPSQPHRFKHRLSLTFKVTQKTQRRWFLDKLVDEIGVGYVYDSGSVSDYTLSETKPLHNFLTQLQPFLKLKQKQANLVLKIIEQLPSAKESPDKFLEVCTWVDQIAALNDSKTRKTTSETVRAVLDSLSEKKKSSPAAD
T9 chain 2: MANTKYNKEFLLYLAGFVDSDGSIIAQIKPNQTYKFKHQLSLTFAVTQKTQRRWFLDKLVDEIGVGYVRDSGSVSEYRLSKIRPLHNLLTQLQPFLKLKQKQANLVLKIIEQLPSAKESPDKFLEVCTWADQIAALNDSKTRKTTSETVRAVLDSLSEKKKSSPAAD
Experimental: as §1, §2

[10] = target: T10, I-CreI heterodimer HBB5.3_A2 / HBB5.4_A5 (Chlamydomonas reinhardtii, UniProt P05725;P05725 SEQ:1-167,SEQ:1-167)
T10 chain 1: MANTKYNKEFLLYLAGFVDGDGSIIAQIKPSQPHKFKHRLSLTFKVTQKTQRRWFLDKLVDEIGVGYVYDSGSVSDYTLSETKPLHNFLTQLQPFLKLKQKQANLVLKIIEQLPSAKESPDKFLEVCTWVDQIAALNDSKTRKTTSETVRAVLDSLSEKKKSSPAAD
T10 chain 2: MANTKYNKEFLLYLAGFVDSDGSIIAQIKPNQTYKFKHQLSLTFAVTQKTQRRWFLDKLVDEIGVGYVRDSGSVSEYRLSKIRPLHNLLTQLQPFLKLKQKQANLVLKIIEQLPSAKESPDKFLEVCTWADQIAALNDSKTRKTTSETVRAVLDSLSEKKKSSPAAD
Experimental: as §1, §2

B1: HBB5 (dsDNA)
DNA 1: CAAGACAGGTTTAAGGAGACCA
DNA 2: TGGTCTCCTTAAACCTGTCTTG
activity [1]: 0.46 absorbance units | activity [2]: 0.37 absorbance units | activity [3]: 0.33 absorbance units | activity [4]: 0.2 absorbance units | activity [5]: 0.54 absorbance units | activity [6]: 0.42 absorbance units | activity [7]: 0.71 absorbance units | activity [8]: 0.86 absorbance units | activity [9]: 0.5 absorbance units | activity [10]: 0.78 absorbance units
